Source: paper PMC12221289

Columns and labels:
Test in all cases: DRaCALA
[1] = system: Rcu mt-EF-Tu1 (Romanomermis culicivorax); settings: 3'-aminoacylated with Phe (flexizyme); DRaCALA of EF-Tu:GTP:Phe-tRNA ternary complexes, 2 ul spotted on nitrocellulose, n>=3; binding buffer, pH and temperature not in the material
[2] = system: Tbr mt-EF-Tu1 (Trichinella britovi); settings: 3'-aminoacylated with Phe (flexizyme); DRaCALA of EF-Tu:GTP:Phe-tRNA ternary complexes, 2 ul spotted on nitrocellulose, n>=3; binding buffer, pH and temperature not in the material
[3] = system: Rcu mt-EF-Tu1 K380E (Romanomermis culicivorax); settings: 3'-aminoacylated with Phe (flexizyme); DRaCALA of EF-Tu:GTP:Phe-tRNA ternary complexes, 2 ul spotted on nitrocellulose, n>=3; binding buffer, pH and temperature not in the material
[4] = system: Rcu mt-EF-Tu1 ΔC15 (Romanomermis culicivorax); settings: GTP; apparent Kd; 3'-aminoacylated with Phe (flexizyme); DRaCALA of EF-Tu:GTP:Phe-tRNA ternary complexes, 2 ul spotted on nitrocellulose, n>=3; binding buffer, pH and temperature not in the material
[5] = system: Tbr mt-EF-Tu1 S381K (Trichinella britovi); settings: 3'-aminoacylated with Phe (flexizyme); DRaCALA of EF-Tu:GTP:Phe-tRNA ternary complexes, 2 ul spotted on nitrocellulose, n>=3; binding buffer, pH and temperature not in the material
[6] = system: Rcu mt-EF-Tu1 K380R (Romanomermis culicivorax); settings: 3'-aminoacylated with Phe (flexizyme); DRaCALA of EF-Tu:GTP:Phe-tRNA ternary complexes, 2 ul spotted on nitrocellulose, n>=3; binding buffer, pH and temperature not in the material
[7] = system: Cel mt-EF-Tu1 (Caenorhabditis elegans); settings: 3'-aminoacylated with Phe (flexizyme); DRaCALA of EF-Tu:GTP:Phe-tRNA ternary complexes, 2 ul spotted on nitrocellulose, n>=3; binding buffer, pH and temperature not in the material
[8] = target: Bta mt-EF-Tu D384K D384K (Bos taurus) (UniProt P49410); settings: 3'-aminoacylated with Phe (flexizyme); DRaCALA of EF-Tu:GTP:Phe-tRNA ternary complexes, 2 ul spotted on nitrocellulose, n>=3; binding buffer, pH and temperature not in the material
[9] = system: Rcu mt-EF-Tu1 ΔC50 (Romanomermis culicivorax); settings: 3'-aminoacylated with Phe (flexizyme); DRaCALA of EF-Tu:GTP:Phe-tRNA ternary complexes, 2 ul spotted on nitrocellulose, n>=3; binding buffer, pH and temperature not in the material
[10] = system: Rcu mt-EF-Tu1 K380A (Romanomermis culicivorax); settings: 3'-aminoacylated with Phe (flexizyme); DRaCALA of EF-Tu:GTP:Phe-tRNA ternary complexes, 2 ul spotted on nitrocellulose, n>=3; binding buffer, pH and temperature not in the material
[11] = system: Tbr mt-EF-Tu1 S381D (Trichinella britovi); settings: 3'-aminoacylated with Phe (flexizyme); DRaCALA of EF-Tu:GTP:Phe-tRNA ternary complexes, 2 ul spotted on nitrocellulose, n>=3; binding buffer, pH and temperature not in the material
[12] = system: Rcu mt-EF-Tu1 K380D (Romanomermis culicivorax); settings: 3'-aminoacylated with Phe (flexizyme); DRaCALA of EF-Tu:GTP:Phe-tRNA ternary complexes, 2 ul spotted on nitrocellulose, n>=3; binding buffer, pH and temperature not in the material
[13] = target: Bta mt-EF-Tu D384A D384A (Bos taurus) (UniProt P49410); settings: 3'-aminoacylated with Phe (flexizyme); DRaCALA of EF-Tu:GTP:Phe-tRNA ternary complexes, 2 ul spotted on nitrocellulose, n>=3; binding buffer, pH and temperature not in the material
[14] = system: Rcu mt-EF-Tu1 region F chimera (Romanomermis culicivorax); settings: 3'-aminoacylated with Phe (flexizyme); DRaCALA of EF-Tu:GTP:Phe-tRNA ternary complexes, 2 ul spotted on nitrocellulose, n>=3; binding buffer, pH and temperature not in the material
[15] = system: Cel mt-EF-Tu1 K386D (Caenorhabditis elegans); settings: 3'-aminoacylated with Phe (flexizyme); DRaCALA of EF-Tu:GTP:Phe-tRNA ternary complexes, 2 ul spotted on nitrocellulose, n>=3; binding buffer, pH and temperature not in the material
[16] = system: Rcu mt-EF-Tu1 K380D/ΔC50 (Romanomermis culicivorax); settings: GTP; apparent Kd; 3'-aminoacylated with Phe (flexizyme); DRaCALA of EF-Tu:GTP:Phe-tRNA ternary complexes, 2 ul spotted on nitrocellulose, n>=3; binding buffer, pH and temperature not in the material
[17] = system: Rcu mt-EF-Tu1 ΔC3 (Romanomermis culicivorax); settings: 3'-aminoacylated with Phe (flexizyme); DRaCALA of EF-Tu:GTP:Phe-tRNA ternary complexes, 2 ul spotted on nitrocellulose, n>=3; binding buffer, pH and temperature not in the material
[18] = system: Rcu mt-EF-Tu1 ΔC18 (Romanomermis culicivorax); settings: 3'-aminoacylated with Phe (flexizyme); DRaCALA of EF-Tu:GTP:Phe-tRNA ternary complexes, 2 ul spotted on nitrocellulose, n>=3; binding buffer, pH and temperature not in the material

“GCGGAUUUAGCUCAGUUGGGAGAGCGCCAGACUGAAGAUCUGGAGGUCCUGUGUUCGAUCCACAGAAUUCGCACCA [Phe-tRNAPhe (canonical)]” showed a Kd [1] of 22.6 nM.

Substance Phe-mt-tRNASer(UCU) (D-armless) has a Kd [1] of 66.4 nM.

For “AGUCAAAUAGCUUAACCUUAAAGCACAAAUCUUUUAAAUUUGAAGAUGUAUCCACUUUGACUACCA [Phe-mt-tRNALys (T-armless)]”, the Kd [1] was 5.2 nM.

Phe-mt-tRNAIle (armless) showed a Kd [2] of 4.4 nM, a Kd [3] of 150 nM and a Kd [4] of 40.7 nM. The Kd [5] was 3 nM, the Kd [6] was 16.5 nM and the Kd [1] was 5.8 nM. The Kd [7] was 17.1 nM, the Kd [8] was 96.8 nM and the fold Kd increase vs wild type (fold Kd increase vs wt) [9] was 14. It also gave a Kd [10] of 33.4 nM, a Kd [11] of 7.1 nM and a Kd [12] of 70.4 nM. The Kd [13] was 60.1 nM, the Kd [14] was 222 nM and the Kd [15] was 62.6 nM. For the same substance, the Kd [16] was 350 nM, the fold Kd increase vs wild type (fold Kd increase vs wt) [17] was 1.5 and the fold Kd increase vs wild type (fold Kd increase vs wt) [18] was 8.7.
